In US20240182536A1 (MURAL ONCOLOGY, published 2024):
Positions count from the first letter of the chain named. In names and notes the source's numbering stands. Where two headings read alike, the source gives them in different places.

Assays:
[1] = target: T1, human IL-18 binding protein (IL-18BP) (human, UniProt O95998 31-194); assay: cell-based or functional assay
T1 sequence (looked up): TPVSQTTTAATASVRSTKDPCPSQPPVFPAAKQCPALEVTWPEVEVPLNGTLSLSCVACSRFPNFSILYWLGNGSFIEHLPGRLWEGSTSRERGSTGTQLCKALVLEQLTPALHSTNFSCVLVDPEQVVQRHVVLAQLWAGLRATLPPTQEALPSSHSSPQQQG

[2] = target: T2, IL-18 receptor (IL-18Rα and IL-18Rβ) (UniProt Q13478 19-541; O95256 20-599, limits assumed); assay: cell-based or functional assay
T2 sequence (looked up) 1: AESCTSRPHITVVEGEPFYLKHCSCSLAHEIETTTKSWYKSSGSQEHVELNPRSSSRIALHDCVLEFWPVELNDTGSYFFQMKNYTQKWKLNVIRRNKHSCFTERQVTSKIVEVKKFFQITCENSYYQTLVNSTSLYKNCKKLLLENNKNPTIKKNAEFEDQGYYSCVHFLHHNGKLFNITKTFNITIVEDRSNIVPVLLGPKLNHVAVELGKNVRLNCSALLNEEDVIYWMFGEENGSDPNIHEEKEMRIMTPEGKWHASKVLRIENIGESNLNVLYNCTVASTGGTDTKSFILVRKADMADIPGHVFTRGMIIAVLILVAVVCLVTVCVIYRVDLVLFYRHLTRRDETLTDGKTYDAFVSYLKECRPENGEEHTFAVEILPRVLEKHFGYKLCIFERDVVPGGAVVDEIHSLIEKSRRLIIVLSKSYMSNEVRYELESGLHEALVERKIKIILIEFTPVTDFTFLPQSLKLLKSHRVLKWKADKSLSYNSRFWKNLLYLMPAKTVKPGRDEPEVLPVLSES
T2 sequence (looked up) 2: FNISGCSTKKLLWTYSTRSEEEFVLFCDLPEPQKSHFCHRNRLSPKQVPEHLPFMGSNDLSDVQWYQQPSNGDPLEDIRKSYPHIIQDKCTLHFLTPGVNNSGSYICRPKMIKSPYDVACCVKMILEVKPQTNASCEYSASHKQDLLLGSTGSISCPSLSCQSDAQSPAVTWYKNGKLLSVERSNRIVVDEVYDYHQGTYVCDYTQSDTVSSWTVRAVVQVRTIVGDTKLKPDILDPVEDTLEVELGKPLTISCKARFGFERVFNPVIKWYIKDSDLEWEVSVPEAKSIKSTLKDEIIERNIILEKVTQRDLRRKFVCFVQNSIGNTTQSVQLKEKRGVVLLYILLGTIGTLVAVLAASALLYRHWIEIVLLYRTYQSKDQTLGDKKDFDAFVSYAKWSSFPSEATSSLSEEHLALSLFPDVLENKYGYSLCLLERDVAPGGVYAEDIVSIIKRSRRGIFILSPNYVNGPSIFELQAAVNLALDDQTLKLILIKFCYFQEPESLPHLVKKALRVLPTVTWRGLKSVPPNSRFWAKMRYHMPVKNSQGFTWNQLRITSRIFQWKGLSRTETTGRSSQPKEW

[3] = target: T1, human IL-18 binding protein (IL-18BP); assay: cell-based or functional assay; remark: listed apart in the source
[4] = target: T3, IL-18 receptors on HEK-Blue IL-18 reporter cells (InvivoGen) (UniProt Q13478 19-541; O95256 20-599); assay: cell-based or functional assay
T3 sequence (looked up) 1: T2 sequence (looked up) 1
T3 sequence (looked up) 2: T2 sequence (looked up) 2

[5] = target: T4, human IL-18R alpha/beta pair (IL-18Rab) (human, UniProt Q13478 19-329; O95256 20-356); assay: Octet BLI
T4 construct: also called hu IL-18Rab
T4 sequence (looked up) 1: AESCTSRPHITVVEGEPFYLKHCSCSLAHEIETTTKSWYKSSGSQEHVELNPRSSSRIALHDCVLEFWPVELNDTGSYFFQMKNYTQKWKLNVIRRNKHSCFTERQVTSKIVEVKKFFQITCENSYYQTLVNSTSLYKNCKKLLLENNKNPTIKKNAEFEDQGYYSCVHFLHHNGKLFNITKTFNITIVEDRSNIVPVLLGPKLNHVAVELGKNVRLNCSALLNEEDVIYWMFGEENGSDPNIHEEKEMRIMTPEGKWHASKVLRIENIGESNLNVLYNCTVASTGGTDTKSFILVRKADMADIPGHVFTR
T4 sequence (looked up) 2: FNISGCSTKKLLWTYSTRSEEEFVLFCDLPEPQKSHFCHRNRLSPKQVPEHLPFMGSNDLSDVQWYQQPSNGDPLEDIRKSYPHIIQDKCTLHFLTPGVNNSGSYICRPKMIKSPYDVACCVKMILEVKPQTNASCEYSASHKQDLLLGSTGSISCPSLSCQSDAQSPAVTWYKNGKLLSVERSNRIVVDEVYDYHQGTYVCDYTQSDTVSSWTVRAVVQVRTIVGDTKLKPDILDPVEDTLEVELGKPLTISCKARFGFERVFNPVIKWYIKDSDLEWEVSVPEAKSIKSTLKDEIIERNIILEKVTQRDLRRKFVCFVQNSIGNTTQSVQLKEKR

[6] = target: T5, human IL-18 receptor alpha (IL-18Rα) (human, UniProt Q13478 19-329, limits assumed); assay: Octet BLI
T5 construct: also called hu IL-18Ra; IL-18R alpha
T5 sequence (looked up): T4 sequence (looked up) 1

[7] = target: T1, human IL-18 binding protein (IL-18BP); assay: Octet BLI
[8] = target: T4, human IL-18R alpha/beta pair (IL-18Rab); assay: Octet BLI; remark: listed apart in the source
Protocol: (§1) Octet 96red instrument was used to determine affinities of IL18 proteins to BP or receptors. 5-10 ug/ml analyte proteins were used for loading on Sartorius tips (AHC or SA). […] 120-180 s loading, 200 s association and 800 s dissociation were used for kinetics. 3-7 data points were used to calculate affinities.

[9] = target: T5, human IL-18 receptor alpha (IL-18Rα); assay: Octet BLI; remark: listed apart in the source
Protocol: as §1

[10] = target: T1, human IL-18 binding protein (IL-18BP); assay: Octet BLI; remark: listed apart in the source
Protocol: as §1

[11] = target: T1, human IL-18 binding protein (IL-18BP); assay: cell-based or functional assay; remark: listed apart in the source
[12] = target: T3, IL-18 receptors on HEK-Blue IL-18 …; assay: cell-based or functional assay; remark: listed apart in the source
[13] = target: T1, human IL-18 binding protein (IL-18BP); assay: cell-based or functional assay; remark: listed apart in the source
[14] = target: T3, IL-18 receptors on HEK-Blue IL-18 …; assay: cell-based or functional assay; remark: listed apart in the source
[15] = target: T6, WT mouse IL-18 on monoFc scaffold (mouse; human, UniProt P70380 36-192); assay: Octet BLI, monoFc scaffold
T6 construct: mature
Protocol: as §1
Several mouse variants were next tested for binding affinity to mouse IL-18R alpha and mouse IL-18BP.

[16] = target: T2, IL-18 receptor (IL-18Rα and IL-18Rβ); assay: cell-based or functional assay; remark: listed apart in the source
[17] = target: T7, interleukin 18 binding protein (IL-18BP) (UniProt O95998 31-194); assay: cell-based or functional assay
T7 sequence (looked up): T1 sequence (looked up)

T6 sequence (P70380 other isoform, or with tags, fused parts or gaps): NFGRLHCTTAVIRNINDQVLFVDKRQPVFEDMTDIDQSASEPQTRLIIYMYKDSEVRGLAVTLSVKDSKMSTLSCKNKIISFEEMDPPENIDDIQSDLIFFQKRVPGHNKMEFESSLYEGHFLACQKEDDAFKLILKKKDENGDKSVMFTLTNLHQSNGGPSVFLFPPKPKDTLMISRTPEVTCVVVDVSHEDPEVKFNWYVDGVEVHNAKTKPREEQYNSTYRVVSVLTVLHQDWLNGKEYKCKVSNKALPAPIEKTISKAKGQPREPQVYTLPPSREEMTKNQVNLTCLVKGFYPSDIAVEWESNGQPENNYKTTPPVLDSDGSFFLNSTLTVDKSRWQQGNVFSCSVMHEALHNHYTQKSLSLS

B1: IL-18 variant G3T, M60K, D157E (ligand)
chain: YFTKLESKLSVIRNLNDQVLFIDQGNRPLFEDMTDSDMRDNAPRTIFIISMYKDSQPRGKAVTISVKSEKISTLSSENKIISFKEMNPPDNIKDTKSDIIFFQRSVPGHDNKMQFESSSYEGYFLASEKERDLFKLILKKEDELGDRSIMFTVQNEE
B1 was tested, and the “EC50 pM, IFN gamma expression in PBMCs, + 300 nM BP” value [1] was 323 pM, the “EC50 pM, IFN gamma expression in PBMCs, no BP” value [2] was 127 pM and the “Fold Change (BP/NO BP), 50 nM BP” value [3] was 1.05 fold. The “Fold Change (BP/NO BP), 300 nM BP” value [3] was 3.69 fold, the “HEK-Blue EC50 pM, +50 nM BP” value [3] was 0.65 pM and the “HEK-blue EC50 (pM) + 300 nM BP” value [3] was 2.77 pM. For the same binder, the “HEK-Blue EC50 pM, NO BP (50 nM BP run)” value [4] was 0.62 pM, the “HEK-Blue EC50 pM, NO BP (300 nM BP run)” value [4] was 0.75 pM and the Kd [5] was 0.1 nM. The Kd [6] was 693 nM, the Kd [7] was 686 nM and the Kd [8] was 0.1 nM. The Kd [9] was 693 nM, the Kd [10] was 686 nM and the “HEK-Blue Activity Assay Ec50 (pM), +300 nM hu IL-18BP” value [11] was 2.77 pM. The “HEK-Blue Activity Assay Ec50 (pM), -hu IL-18BP” value [12] was 0.75 pM, the “HEK-Blue Activity Assay Ec50 (pM), +50 nM hu IL-18BP” value [13] was 0.65 pM and the “HEK-Blue Activity Assay Ec50 (pM), -hu IL-18BP” value [14] was 0.62 pM.

B2: IL-18 variant G3V, M60K (ligand)
chain: B1 chain with T3V, E157D
With B2 the “EC50 pM, IFN gamma expression in PBMCs, + 300 nM BP” value [1] was 14.4 pM, the “EC50 pM, IFN gamma expression in PBMCs, no BP” value [2] was 14.9 pM and the “Fold Change (BP/NO BP), 50 nM BP” value [3] was 1.25 fold. For the same binder, the “Fold Change (BP/NO BP), 300 nM BP” value [3] was 3.25 fold, the “HEK-Blue EC50 pM, +50 nM BP” value [3] was 0.16 pM and the “HEK-blue EC50 (pM) + 300 nM BP” value [3] was 0.59 pM. The “HEK-Blue EC50 pM, NO BP (50 nM BP run)” value [4] was 0.12 pM, the “HEK-Blue EC50 pM, NO BP (300 nM BP run)” value [4] was 0.18 pM and the Kd [5] was 0.07 nM. It also gave a Kd [6] of 41 nM, a Kd [7] of 91 nM and a Kd [8] of 0.07 nM. The Kd [9] was 41 nM, the Kd [10] was 91 nM and the “HEK-Blue Activity Assay Ec50 (pM), +300 nM hu IL-18BP” value [11] was 0.59 pM. For the same binder, the “HEK-Blue Activity Assay Ec50 (pM), -hu IL-18BP” value [12] was 0.18 pM, the “HEK-Blue Activity Assay Ec50 (pM), +50 nM hu IL-18BP” value [13] was 0.16 pM and the “HEK-Blue Activity Assay Ec50 (pM), -hu IL-18BP” value [14] was 0.12 pM.

B3: mouse IL-18 binding protein (other, UniProt Q9Z0M9 29-193, looked up)
chain: TSAPQTTATVLTGSSKDPCSSWSPAVPTKQYPALDVIWPEKEVPLNGTLTLSCTACSRFPYFSILYWLGNGSFIEHLPGRLKEGHTSREHRNTSTWLHRALVLEELSPTLRSTNFSCLFVDPGQVAQYHIILAQLWDGLKTAPSPSQETLSSHSPVSRSAGPGVA
notes: also called Mouse IL18BP; Mouse IL-18BP
For B3, the Kd [15] was 2.24 nM.

B4: mouse IL-18 receptor alpha (receptor, UniProt Q61098 20-326, looked up)
chain: KSCIHRSQIHVVEGEPFYLKPCGISAPVHRNETATMRWFKGSASHEYRELNNRSSPRVTFHDHTLEFWPVEMEDEGTYISQVGNDRRNWTLNVTKRNKHSCFSDKLVTSRDVEVNKSLHITCKNPNYEELIQDTWLYKNCKEISKTPRILKDAEFGDEGYYSCVFSVHHNGTRYNITKTVNITVIEGRSKVTPAILGPKCEKVGVELGKDVELNCSASLNKDDLFYWSIRKEDSSDPNVQEDRKETTTWISEGKLHASKILRFQKITENYLNVLYNCTVANEEAIDTKSFVLVRKEIPDIPGHVFTG
notes: also called Mouse IL18Ra; mouse IL-18R alpha
In the case of B4, the Kd [15] is reported as 13.3 nM.

B5: Comparator 1 (ligand)
chain: YFGKLESKLSVIRNLNDQVLFIDQGNRPLFEDMTDSDCRDNAPRTIFIISKYSDSLARGLAVTISVKCEKISTLSCENKIISFKEMNPPDNIKDTKSDIIFFQRDVPGHSRKMQFESSSYEGYFLACEKERDLFKLILKKEDELGDRSIMFTVQNED
In the case of B5, the “EC50 (pM), PBMC IFN gamma assay” value [16] is reported as 4.86 pM and the “EC50 (pM), PBMC IFN gamma assay, + 300 nM BP” value [17] is reported as 8.78 pM.
